US20180148477A1 (published 2018)
Bridge positions count the residues as written; N and C are the ends. Square brackets hold non-standard residues; d marks the D form. Ends that are not written are not given here. 2Nal = N[C@@H](Cc1ccc2ccccc2c1)C(=O)O; d1Nal = N[C@H](Cc1cccc2ccccc12)C(=O)O; d2Nal = N[C@H](Cc1ccc2ccccc2c1)C(=O)O; NMeR = CN[C@@H](CCCNC(=N)N)C(=O)O; Pen = CC(C)(S)[C@H](N)C(=O)O; dNMeK = CN[C@H](CCCCN)C(=O)O; hLeu = CC(C)CC[C@H](N)C(=O)O; Dab = NCC[C@H](N)C(=O)O; Dap = NC[C@H](N)C(=O)O

B1: SEQ ID NO: 55 (peptide)
peptide: Ac-[Pen][NMeR]SDTL[Pen]W[dE][Dap]-NH2
modifications: disulfide 1-7
SMILES: CC(=O)N[C@@H]1C(=O)N(C)[C@@H](CCCNC(=N)N)C(=O)N[C@@H](CO)C(=O)N[C@@H](CC(=O)O)C(=O)N[C@@H]([C@@H](C)O)C(=O)N[C@@H](CC(C)C)C(=O)N[C@H](C(=O)N[C@@H](Cc2c[nH]c3ccccc23)C(=O)N[C@H](CCC(=O)O)C(=O)N[C@@H](CN)C(N)=O)C(C)(C)SSC1(C)C
B2: SEQ ID NO: 164 (peptide)
peptide: Ac-[Pen][NMeR]SDTY[Pen][2Nal][dE]-NH2
modifications: disulfide 1-7
SMILES: CC(=O)N[C@@H]1C(=O)N(C)[C@@H](CCCNC(=N)N)C(=O)N[C@@H](CO)C(=O)N[C@@H](CC(=O)O)C(=O)N[C@@H]([C@@H](C)O)C(=O)N[C@@H](Cc2ccc(O)cc2)C(=O)N[C@H](C(=O)N[C@@H](Cc2ccc3ccccc3c2)C(=O)N[C@H](CCC(=O)O)C(N)=O)C(C)(C)SSC1(C)C
B3: SEQ ID NO: 161 (peptide)
peptide: Ac-[Pen][NMeR]SD[hLeu]L[Pen][2Nal][dE]-NH2
modifications: disulfide 1-7
SMILES: CC(=O)N[C@@H]1C(=O)N(C)[C@@H](CCCNC(=N)N)C(=O)N[C@@H](CO)C(=O)N[C@@H](CC(=O)O)C(=O)N[C@@H](CCC(C)C)C(=O)N[C@@H](CC(C)C)C(=O)N[C@H](C(=O)N[C@@H](Cc2ccc3ccccc3c2)C(=O)N[C@H](CCC(=O)O)C(N)=O)C(C)(C)SSC1(C)C
B4: SEQ ID NO: 56 (peptide)
peptide: Ac-[Pen][NMeR]SDTL[Pen]W[dE][Dab]-NH2
modifications: disulfide 1-7
SMILES: CC(=O)N[C@@H]1C(=O)N(C)[C@@H](CCCNC(=N)N)C(=O)N[C@@H](CO)C(=O)N[C@@H](CC(=O)O)C(=O)N[C@@H]([C@@H](C)O)C(=O)N[C@@H](CC(C)C)C(=O)N[C@H](C(=O)N[C@@H](Cc2c[nH]c3ccccc23)C(=O)N[C@H](CCC(=O)O)C(=O)N[C@@H](CCN)C(N)=O)C(C)(C)SSC1(C)C
B5: SEQ ID NO: 59 (peptide)
peptide: Ac-[Pen][NMeR]SDTL[Pen]WE[Dap]-NH2
modifications: disulfide 1-7
SMILES: CC(=O)N[C@@H]1C(=O)N(C)[C@@H](CCCNC(=N)N)C(=O)N[C@@H](CO)C(=O)N[C@@H](CC(=O)O)C(=O)N[C@@H]([C@@H](C)O)C(=O)N[C@@H](CC(C)C)C(=O)N[C@H](C(=O)N[C@@H](Cc2c[nH]c3ccccc23)C(=O)N[C@@H](CCC(=O)O)C(=O)N[C@@H](CN)C(N)=O)C(C)(C)SSC1(C)C
B6: SEQ ID NO: 162 (peptide)
peptide: Ac-[Pen][NMeR]SDTF[Pen][2Nal][dE]-NH2
modifications: disulfide 1-7
SMILES: CC(=O)N[C@@H]1C(=O)N(C)[C@@H](CCCNC(=N)N)C(=O)N[C@@H](CO)C(=O)N[C@@H](CC(=O)O)C(=O)N[C@@H]([C@@H](C)O)C(=O)N[C@@H](Cc2ccccc2)C(=O)N[C@H](C(=O)N[C@@H](Cc2ccc3ccccc3c2)C(=O)N[C@H](CCC(=O)O)C(N)=O)C(C)(C)SSC1(C)C
B7: SEQ ID NO: 160 (peptide)
peptide: Ac-[Pen][NMeR]SDIL[Pen][2Nal][dE]-NH2
modifications: disulfide 1-7
SMILES: CC[C@H](C)[C@@H]1NC(=O)[C@H](CC(=O)O)NC(=O)[C@H](CO)NC(=O)[C@H](CCCNC(=N)N)N(C)C(=O)[C@@H](NC(C)=O)C(C)(C)SSC(C)(C)[C@@H](C(=O)N[C@@H](Cc2ccc3ccccc3c2)C(=O)N[C@H](CCC(=O)O)C(N)=O)NC(=O)[C@H](CC(C)C)NC1=O
B8: SEQ ID NO: 61 (peptide)
peptide: Ac-[Pen][NMeR]SDTL[Pen]WE[Dab]-NH2
modifications: disulfide 1-7
SMILES: CC(=O)N[C@@H]1C(=O)N(C)[C@@H](CCCNC(=N)N)C(=O)N[C@@H](CO)C(=O)N[C@@H](CC(=O)O)C(=O)N[C@@H]([C@@H](C)O)C(=O)N[C@@H](CC(C)C)C(=O)N[C@H](C(=O)N[C@@H](Cc2c[nH]c3ccccc23)C(=O)N[C@@H](CCC(=O)O)C(=O)N[C@@H](CCN)C(N)=O)C(C)(C)SSC1(C)C
B9: SEQ ID NO: 163 (peptide)
peptide: Ac-[Pen][NMeR]SDTQ[Pen][2Nal][dE]-NH2
modifications: disulfide 1-7
SMILES: CC(=O)N[C@@H]1C(=O)N(C)[C@@H](CCCNC(=N)N)C(=O)N[C@@H](CO)C(=O)N[C@@H](CC(=O)O)C(=O)N[C@@H]([C@@H](C)O)C(=O)N[C@@H](CCC(N)=O)C(=O)N[C@H](C(=O)N[C@@H](Cc2ccc3ccccc3c2)C(=O)N[C@H](CCC(=O)O)C(N)=O)C(C)(C)SSC1(C)C
B10: SEQ ID NO: 88 (peptide)
peptide: Ac-[Pen][NMeR]SDTL[Pen][2Nal][dK]-NH2
modifications: disulfide 1-7
SMILES: CC(=O)N[C@@H]1C(=O)N(C)[C@@H](CCCNC(=N)N)C(=O)N[C@@H](CO)C(=O)N[C@@H](CC(=O)O)C(=O)N[C@@H]([C@@H](C)O)C(=O)N[C@@H](CC(C)C)C(=O)N[C@H](C(=O)N[C@@H](Cc2ccc3ccccc3c2)C(=O)N[C@H](CCCCN)C(N)=O)C(C)(C)SSC1(C)C

target: human α4β7 integrin on cells (human) (UniProt P13612); assay: RPMI8866 adhesion to MAdCAM-1

Row | IC50 [nM] | Binder
1 | > 25 | Ac-[Pen][NMeR]SDTL[Pen][2Nal][dY][dK]-NH2 (disulfide 1-7; also: dimer via DIG) [SEQ ID NO: 27]
2 | > 100 | B1
3 | > 1000 | B2
4 | > 25 | Ac-[Pen][NMeR]SDTL[Pen][d1Nal]E[dK]-NH2 (disulfide 1-7; also: dimer via DIG) [SEQ ID NO: 34]
5 | > 1000 | B3
6 | > 500 | B4
7 | > 10000 | B5
8 | > 1000 | B6
9 | > 10 | Ac-[Pen][NMeR]SDTL[Pen][2Nal][dE][dNMeK]-NH2 (disulfide 1-7; also: dimer via DIG) [SEQ ID NO: 39]
10 | > 1000 | B7
11 | > 1000 | B8
12 | > 100 | Ac-[Pen][NMeR]SDTL[Pen][d2Nal]E[dK]-NH2 (disulfide 1-7; also: dimer via DIG) [SEQ ID NO: 35]
13 | > 1000 | Ac-[Pen][NMeR]SDTL[Pen]W[dE][Dap] (disulfide 1-7; also: C-terminus written Dap-Ac, acetyl place unclear) [SEQ ID NO: 63]
14 | > 1000 | Ac-[Pen][NMeR]SDTL[Pen]W[dE][Dab] (disulfide 1-7; also: C-terminus written Dab-Ac, acetyl place unclear) [SEQ ID NO: 64]
15 | > 1000 | Ac-[Pen][NMeR]SDTL[Pen]WE[Dap] (disulfide 1-7; also: C-terminus written Dap-Ac, acetyl place unclear) [SEQ ID NO: 60]
16 | > 1000 | Ac-[Pen][NMeR]SDTL[Pen]WE[Dab] (disulfide 1-7; also: C-terminus written Dab-Ac, acetyl place unclear) [SEQ ID NO: 62]
17 | > 1000 | B9

target: rh integrin α4β7 (R&D Systems #5397-A30) (human) (UniProt P13612); assay: competition ELISA vs MAdCAM-1

Row | IC50 [nM] | Binder
18 | > 10 | B10
